Reference: patent US20040029228A1

Key:
Assay in all cases: cell-based or functional assay
[1] = biological target: human CRF2-4 (IL10Rb) (human)
[2] = biological target: zcytoR19 and IL10Rb (CRF2-4) co-expressed on cells (heterodimeric receptor) (human)
[3] = biological target: T1, human zcytor19 (Zyctor19) cytokine receptor (human)
T1 sequence (Q8IU57 1-520, looked up): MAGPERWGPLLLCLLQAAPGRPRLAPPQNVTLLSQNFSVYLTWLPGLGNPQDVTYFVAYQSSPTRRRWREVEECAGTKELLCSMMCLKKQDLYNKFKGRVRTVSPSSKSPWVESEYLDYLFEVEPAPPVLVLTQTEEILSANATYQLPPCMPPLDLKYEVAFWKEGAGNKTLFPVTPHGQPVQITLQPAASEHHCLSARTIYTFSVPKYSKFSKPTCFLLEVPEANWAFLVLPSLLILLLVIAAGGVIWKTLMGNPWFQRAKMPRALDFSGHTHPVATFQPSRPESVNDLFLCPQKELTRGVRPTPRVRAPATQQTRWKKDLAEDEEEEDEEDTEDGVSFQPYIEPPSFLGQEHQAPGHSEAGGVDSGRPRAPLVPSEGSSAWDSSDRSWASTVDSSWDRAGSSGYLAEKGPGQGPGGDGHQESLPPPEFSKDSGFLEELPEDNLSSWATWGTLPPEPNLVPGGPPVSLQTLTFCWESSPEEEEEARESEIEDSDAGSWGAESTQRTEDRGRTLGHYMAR

Sequence of human CRF2-4 (IL10Rb) (human) (Q08334 whole entry): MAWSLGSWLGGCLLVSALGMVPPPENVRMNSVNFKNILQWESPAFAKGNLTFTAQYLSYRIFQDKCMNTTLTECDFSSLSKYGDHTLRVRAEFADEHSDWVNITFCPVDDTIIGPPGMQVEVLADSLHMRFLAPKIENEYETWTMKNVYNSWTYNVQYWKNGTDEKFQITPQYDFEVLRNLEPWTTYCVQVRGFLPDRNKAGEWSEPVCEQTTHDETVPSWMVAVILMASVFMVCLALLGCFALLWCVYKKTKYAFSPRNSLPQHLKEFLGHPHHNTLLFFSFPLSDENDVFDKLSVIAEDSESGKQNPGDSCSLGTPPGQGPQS

ISRE-luciferase fold induction, wild-type 293 cells, Zcyto22 0.01 ng/ml (fold induction) [1]: 0.9
ISRE-luciferase fold induction, wild-type 293 cells, Zcyto22 0.01 ng/ml + IL10Rb neutralizing Antibody (fold induction) [1]: 0.9
ISRE-luciferase fold induction, wild-type 293 cells, Zcyto22 0.1 ng/ml (fold induction) [1]: 1.2
ISRE-luciferase fold induction, wild-type 293 cells, Zcyto22 0.1 ng/ml + IL10Rb neutralizing Antibody (fold induction) [1]: 0.8
ISRE-luciferase fold induction, wild-type 293 cells, Zcyto22 1 ng/ml (fold induction) [1]: 1.8
ISRE-luciferase fold induction, wild-type 293 cells, Zcyto22 1 ng/ml + IL10Rb neutralizing Antibody (fold induction) [1]: 0.8
ISRE-luciferase fold induction, wild-type 293 cells, Zcyto22 10 ng/ml (fold induction) [1]: 8
ISRE-luciferase fold induction, wild-type 293 cells, Zcyto22 10 ng/ml + IL10Rb neutralizing Antibody (fold induction) [1]: 1
ISRE-luciferase fold induction, wild-type 293 cells, Zcyto22 100 ng/ml (fold induction) [1]: 11
ISRE-luciferase fold induction, wild-type 293 cells, Zcyto22 100 ng/ml + IL10Rb neutralizing Antibody (fold induction) [1]: 1.2
ISRE-luciferase fold induction, BHK cells transfected with zcytoR19 and IL10Rb (CRF2-4), zcyto22 0.001 ng/ml (fold induction) [2]: 1.3
ISRE-luciferase fold induction, BHK cells transfected with zcytoR19 and IL10Rb (CRF2-4), zcyto22 0.01 ng/ml (fold induction) [2]: 1.7
ISRE-luciferase fold induction, BHK cells transfected with zcytoR19 and IL10Rb (CRF2-4), zcyto22 0.1 ng/ml (fold induction) [2]: 2.4
ISRE-luciferase fold induction, BHK cells transfected with zcytoR19 and IL10Rb (CRF2-4), zcyto22 1 ng/ml (fold induction) [2]: 2.7
ISRE-luciferase fold induction, BHK cells transfected with zcytoR19 and IL10Rb (CRF2-4), zcyto22 10 ng/ml (fold induction) [2]: 2.7
ISRE-luciferase fold induction, BHK cells transfected with zcytoR19 and IL10Rb (CRF2-4), zcyto22 100 ng/ml (fold induction) [2]: 2.2
ISRE-luciferase fold induction, BHK cells transfected with zcytoR19 and IL10Rb (CRF2-4), zcyto22 1000 ng/ml (fold induction) [2]: 2.2
ISRE-luciferase fold induction, 293 cells transfected with ISRE-Luc./Zcytor19, Zcyto22 125 ng/ml (fold induction) [3]: 104
ISRE-luciferase fold induction, BHK cells transfected with zcytoR19 alone, zcyto22 0.001 ng/ml (fold induction) [3]: 1.2
ISRE-luciferase fold induction, BHK cells transfected with zcytoR19 alone, zcyto22 0.01 ng/ml (fold induction) [3]: 1.2
ISRE-luciferase fold induction, BHK cells transfected with zcytoR19 alone, zcyto22 0.1 ng/ml (fold induction) [3]: 1.1
ISRE-luciferase fold induction, BHK cells transfected with zcytoR19 alone, zcyto22 1 ng/ml (fold induction) [3]: 1.5
ISRE-luciferase fold induction, BHK cells transfected with zcytoR19 alone, zcyto22 10 ng/ml (fold induction) [3]: 1.9
ISRE-luciferase fold induction, BHK cells transfected with zcytoR19 alone, zcyto22 100 ng/ml (fold induction) [3]: 2
ISRE-luciferase fold induction, BHK cells transfected with zcytoR19 alone, zcyto22 1000 ng/ml (fold induction) [3]: 1.8
B1: zcyto22 (ligand)
chain: MTGDCMPVLVLMAAVLTVTGAVPVARLRGALPDARGCHIAQFKSLSPQELQAFKRAKDALEESLLLKDCKCRSRLFPRTWDLRQLQVRERPVALEAELALTLKVLEATADTDPALGDVLDQPLHTLHHILSQLRACVSRQGPGTQIQPQPTAGPRTRGRLHHWLHRLQEAPKKESPGCLEASVTFNLFRLLTRDLNCVASGDLCV
